Results taken from patent US20260258115A1 (MAPP BIOPHARMACEUTICAL, published 2026).

B1: ADI-21008 (antibody, V domains shown)
VH: QVQLQESGAGLLKPSETLSLTCTVYGGTFSGYHWNWIRQPPGKGLEWIGEINHRENTDYNASLESRVTISVDTSKRQFSLKMNSVTVADTAVYYCARGIQVLTNLGTEVRVHQFLDLWGRGTLVTVSS
VL: DIVLTQTPATLSLSPGERATLSCRASQSVSTYLAWYQQKPGQAPRLLIYDASNRAAGIPARFSGSGSGTDFTLTISSLEPEDFAVYYCQQRTNWLPLTFGGGTKVDIK
notes: also called Ab 259
B2: ADI-20996 (antibody, V domains shown)
VH: QVQLVESGPALVKPTQTLTLTCTFSGFSLTTRGMCVSWIRQPPGKALEWLARIDWDDDKYYSTSLKTRLTISKDTSKNQVVLTMTNMDPVDTATYYCARASTLTTAGYYLHYKDVWGNGTTVTVSS
VL: DIRMTQSPSSLSASVGDRVTITCRASQSIGTYLNWFQQKPGKAPNLLIYAASILHSGVPSRFSGSGSGTDFTLTIRTLQPEDFATYYCQQSYPTVTFGQGTKVEIK
B3: ADI-21004 (antibody, V domains shown)
VH: QVQLQESGGGVVQPGRSLTLSCAASGFTFSSYGMHWVRQAPGKGLDWVAEIWYDGSNKYYVDSVKGRFTISRDNSKNTLYLQMKSLRAEDTAIYYCARDGGYESPFFDKWGQGTLVTVSS
VL: EIVMTQSPDSLGVSLGERATINCKSSQSLYTSNHENSLAWYQQKPGQPPRLLIYWASTRELGVPDRFSGSGSGTDFTLTISSLQAEDVAVYYCQQYHTTPLTFGPGTKVEIK
B4: ADI-21003 (antibody, V domains shown)
VH: QVQLQQWGAGLLKPSETLSLSCAVSGGSFSGYYWTWIRQPPGKGLEWIGEINHSGSTNYNPSLKSRVTISVDTSKNQFSLKLSSVTAADTAVYYCARARYFDYLAHWSFDLWGRGTLVTVSS
VL: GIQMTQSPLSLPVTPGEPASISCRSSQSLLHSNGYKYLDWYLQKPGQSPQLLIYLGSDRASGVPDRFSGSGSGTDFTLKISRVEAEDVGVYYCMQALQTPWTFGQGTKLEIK
B5: ADI-21026 (antibody, V domains shown)
VH: QVQLVQSGPGLVKPSQTLSLTCTVSGVSISSGGFYWSWIRQHPGKGLEWIGHIYYSRSTYYNPSLKSRVTMSLNMSKNQFSLRLSSVTAADTAVYYCARERREWLHGELDYWGQGTTVTVSS
VL: DIQMTQSPDSLAVSLGEGATINCKSSQSVLDSSKNKNYLAWYQQRPGQPPKLLISWASTRESGVPDRFSGSGSGTDFTLTISSLQAEDVAVYSCQQYFSPPATFGQGTKLEIK
B6: ADI-21022 (antibody, V domains shown)
VH: EVQLVETGPGLVKPSETLSLTCSVSGGSISSYYWSWLRQPPGKGLEWIGYIYNSGRTNYNPSLRSRVTISVDTSQNQFSLRLGSVTAADTAVYYCARGGAGDDLLRGSYRYLNFWGQGTLVTVSS
VL: QSVLTQPPSVSVAPGQTARITCGGNNIGSKSVHWYQQKPGQAPVLVVYDDTERPSGIPERISGSNSGNTATLTISRVEAGDEADYYCQVWDSSSDHPDLLFGGGTKLTVL
B7: ADI-20990 (antibody, V domains shown)
VH: EVQLVESGGGVVQPGRSLRLSCSASGFPFHSYAMHWVRQAPGKGLEWVAGIWYEGSSESYADSVKGRLTISRDNSRNTLYLQMNSLRVEDTAVYYCARRGSFSGFDSWGQGSLVTVSS
VL: DIVMTQSPLSLPVTPGEPASISCRSSQSLLHSNGYNYLDWYLQKPGQSPQLLISLGSNRASGVPDRFSGSVAGTDFTLKISRVEAEDVGVYYCMQSSQTPYTFGQGTKVDIK
B8: ADI-20976 (antibody, V domains shown)
VH: QVQLVESGGDLVQKGGSLRLSCAASGFTFDNYAMTWIRQAPGQGLEWVSTVSGFVLGTGYTTYYADSVKGRFTISRDSSKNTVYLQLNSLRAEDTAVYYCAKCAATRNECLWDYLQQWGQGTTVTVSS
VL: EIVMTQSPSSLSASVGDRVTITCRASQSVSIYLNWYQQKGGKAPKLLIYGASALQRGVPSRFSGSGSGTDFTLTITSLQPEDFATYFCHQSYSAPQTFGQGTKVDIK
B9: ADI-20993 (antibody, V domains shown)
VH: EVQLVESGGGVVQPGRSLRLTCAASGFPFSSYAMHWVRQAPGKGLEWVAVTWYDGPNRDYADSVKGRFTVSRDNSKNTLYLQMTSLRADDTAVYYCARRGSWGSFDYWGQGTLVTVSS
VL: DIVMTQSPLSLSATPGEPASISCRPSQSLLHSNGYNYLEWYLQKPGQSPQLLIYLGSNRASGVPDRFSGGGSGTDFTLRISRVEADDVGVYYCMQASQTPYTFGQGTKVEIK
B10: ADI-21037 (antibody, V domains shown)
VH: QVQLVQSGGGVVQPGRSLRLSCAASGFPFSSYAMHWVRQAPGKGLEWVAVIWYPGGEKYSADSVTGRFTISRDNSKNTLYLQMSSLRVEDTAVYYCARRSVGAFDYWGQGTLVTVSS
VL: DIQMTQSPLSLPVTPGEPASISCRSSQSLLNSNGYNYLDWYLQKPGQSPQVLIYLGSHRASGVPDRFSGSGSGTDFTLRISRVEAEDVGVYYCMQAVQTPYTFGQGTKVEIK
B11: ADI-21000 (antibody, V domains shown)
VH: EVQLVESGPVLVKPRGTLTLTCTVSGFSLSDARMGVSWIRQPPGKALEWLAHIFWDDEKSYSTSLKNRLTISKDTSRGQVVLRMTNMDPVDTGTYFCARVNTYHSGGYYLYYFDVWGQGTLVTVSS
VL: EIVLTQSPSSLSASVGDRVTITCRASQIIASYLNWYQQKPGQAPKLLIYAASSLQSGVPSRFSGSGSGTDFTLTISSLQPEDFATYYCQQSYSTRMYTFGQGTKVEIK
B12: ADI-21001 (antibody, V domains shown)
VH: EVQLVESGPGLVKPSETLSLTCTVSGGSISDIDYYWGWIRQPPGKGLEWIGSIYYSGSTYYNPSLESRVTISVDTSKNQFSLKLRSVSAADTALYHCARHGPPWVVTAIRGHAFDVWGQGTTVTVSS
VL: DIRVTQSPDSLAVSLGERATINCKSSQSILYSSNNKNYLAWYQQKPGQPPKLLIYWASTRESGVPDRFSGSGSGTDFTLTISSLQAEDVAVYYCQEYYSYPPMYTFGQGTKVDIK
B13: ADI-21019 (antibody, V domains shown)
VH: EVQLLESGGGLVRPGGSLRLSCAVSGFTFSGNALTWIRRAPGKGLEWVSTIGDSGGGSYYADSVKGRFTISRDNSKSTLYLQMNSLTAEDTAVYYCARDPYGDYRDYYGIDVWGQGTTVTVSS
VL: EIVMTQSPLSLPVTPGEPASISCRSSQSLRHSNGYNYVDWYLQKPGQSPQLLIYLGSNRASGVPDRFRGSGSGTDFTLKISRVEAEDVGVYYCMQALQTPLTFGQGTKVEIK
B14: ADI-20981 (antibody, V domains shown)
VH: QVQLQESGPRLVKPSETLSLTCTVSGDSISSRNYFWAWIRQPPGKGLEWIGTIYYSGNTYSNPSLKSRVTISVDTSKKQFSLNLSSVTAADTAVYYCARGAYGGDAFDIWGQGTVVTVSS
VL: DIRVTQSPSSVSASVGDRVTITCRASQGIGTWLAWYQQKPGKAPHLLIYAASRLQSGVPSRFSGSGSGTDFTLSISSLHPEDFATYYCQQAYAFPRTFGQGTKVEIK
B15: ADI-21007 (antibody, V domains shown)
VH: QVQLVQSGADVKKPGASVKVSCKSSGYTFSNHSMHWVRQAPGQGLEWMGRIHPSSGTTTYAQKFQGRVTMTRDTSTSTVYMEVSSLRSEDTAVYYCARSPFFDFDFWGQGTMVTVSS
VL: SYVLTQPHSVSESPGKTVTISCTRSSGSIASNYVQWYQQRPGSAPTSVIYEDNQRPSGVPDRFSGSIDSTSNSASLTISGLKTEDEADYYCQSYYSSGWVFGGGTKLTVL
B16: ADI-21011 (antibody, V domains shown)
VH: QVQLQESGPGLVKPSETLSLSCTASGDSISDYYWSWIRQPPGKGLEWIGFVSDTWGTNYSPSLTSRVAISLDTSRSQVSLRLRSVTAADTAVYYCVRTHLYDRGGYYLYYFDYWGQGTLVTVSS
VL: DIRMTQSPPSLSASVGDRVTITCRASQRIASYLNWYQQKPDTAPKLLIYAASNLQTGVPSRFSGSGSGTDFTLTISSLQPEDFATYYCQQSYSTPYTFGQGTKLEIK
B17: ADI-21012 (antibody, V domains shown)
VH: QVQLVQSGPAVVKPTQTLTLTCSFSGFSLSTSRMSVSWIRQPPGKALEWLARIDWDGDKYYSTSLKSRLTISKDTSKNQVVLTMTNMDPVDTATYYCARGSYYVSSGYYLNYFDYWGQGTLVTVSS
VL: DIRMTQSPSSLSASVGDRVTITCRTSQTIASYLNWYQQKPGKAPNLLIYAASILQTGVPSRFSGSGSGTDFTLTISSLQPEDFATYYCQQSYGTPQTFGQGTKVEIK
B18: ADI-21002 (antibody, V domains shown)
VH: QVQLVESGPGLVKPSGTLSLTCAVSGDSINSGNWWNWVRQAPGKGLEWIGEIYHRGTSNYNPSLKSRVTISVDQSKNQFSLKVTSLTAADTAIYYCARARGYSSGPSYYYYLDVWGKGTLVTVSS
VL: EIVMTQSPSSLSASVGDRVTISCRASQSISTYLNWYQQKPGKAPKVIIYGASNLQSGVPSRFSGSGSGTDFTLTISSLQPEDFATYYCQKSFNPCVFGQGTKVDIK
B19: ADI-20989 (antibody, V domains shown)
VH: EVQLLESGPGLVKPSGTLSLTCAVSGGSIINSNWWSWVRQSPGKGLEWIGDIYHSGSTTYNPSLKSRVTISVDRSKNQYSLRLTSVTAADTAVYYCAKIGPDNRSGPDYYYFMDVWGKGTTVTVSS
VL: EIVLTQSPSSLPASVGDRVTISCRASQSISNYVYWYQQKPGKAPKLLIYAASSLQSGVPSRFSGSGSGTDFTLSISSLQFEDFATYFCQQSYSTPPTFGQGTKLEIK

Key:
Assay in all cases: BLI, IgG
[1] = molecular target: T1, RSV postfusion F (postF), subtype B (respiratory syncytial virus, subtype B)
T1 construct: also called F ΔFP; Postfusion subtype B

[2] = molecular target: RSV prefusion F (preF), subtype A (respiratory syncytial virus, subtype A, UniProt P03420 26-513)
[3] = molecular target: T2, RSV postfusion F (postF), subtype A (respiratory syncytial virus, subtype A, UniProt P03420 26-513)
T2 construct: also called F ΔFP; Postfusion subtype A

[4] = molecular target: RSV prefusion F (preF), subtype B (respiratory syncytial virus, subtype B)

Row | Binder | Kd [1] [nM] | Kd [2] [nM] | Kd [3] [nM] | Kd [4] [nM] | binding result [2]
1 | B1 | 1.45 | 5.68 | 0.918 | 4.14 | 
2 | B2 | 1.12 | 1.03 | 0.204 | 1.06 | 
3 | B3 | 0.798 | 4.59 | 0.54 | 10.2 | 
4 | B4 | 0.421 | 4.75 | 0.44 | 0.987 | 
5 | B5 | 1.43 | 6.35 | 0.945 | 3.99 | 
6 | B6 | 0.357 |  | 0.256 | 17.4 | no binding
7 | B7 | 0.312 | 1.58 | 0.178 | 0.904 | 
8 | B8 | 0.304 | 1.86 | 0.263 | 0.955 | 
9 | B9 | 0.273 | 1.38 | 0.168 | 0.742 | 
10 | B10 | 3.17 | 1.95 | 0.248 | 4.81 | 
11 | B11 | 0.602 | 1.49 | 0.295 | 1.3 | 
12 | B12 | 0.302 | 2.12 | 0.277 | 1.85 | 
13 | B13 | 0.168 | 0.182 | 0.154 | 0.962 | 
14 | B14 | 0.295 | 2.34 | 0.233 | 2.14 | 
15 | B15 | 0.171 | 1.48 | 0.171 | 1.72 | 
16 | B16 | 0.356 | 1.41 | 0.162 | 0.982 | 
17 | B17 | 0.28 | 0.371 | 0.214 | 1.92 | 
18 | B18 | 6.39 | 2.36 | 0.214 | 8.6 | 
19 | B19 | 0.809 | 4.8 | 0.428 | 6.29 | 
